Test results as given in patent US10941182 (Amgen, dated 2021).
Starred links: 1 amine or outer side, 2 acyl side, 3 side chain; linkers in the order of their positions; H or OH if unused. Non-standard residues stand in square brackets, D forms with d. Primed or numbered codes have the meaning given here. *: point of attachment. NPipG = 2-(piperidin-4-ylamino)acetic acid, O=C(CN(C1CCN([*:3])CC1)[*:1])[*:2]; AC4Abu = α-carboxy-4-aminobutyric acid, O=C(C(CCN[*:1])C(=O)[*:3])[*:2]; Bip = N[C@@H](Cc1ccc(-c2ccccc2)cc1)C(=O)O; Oic = O=C(O)[C@@H]1C[C@@H]2CCCC[C@@H]2N1; Phe(4-Cl) = N[C@@H](Cc1ccc(Cl)cc1)C(=O)O; Phe(4-F) = N[C@@H](Cc1ccc(F)cc1)C(=O)O; γGlu = O=C(O)[C@H](CCC(=O)[*:2])N[*:1]; d(β3hF) = N[C@@H](CC(=O)O)Cc1ccccc1; Igl = N[C@H](C(=O)O)C1Cc2ccccc2C1; NMeR = CN[C@@H](CCCNC(=N)N)C(=O)O; Palmitoyl = CCCCCCCCCCCCCCCC(=O)*; 3Pal = N[C@@H](Cc1cccnc1)C(=O)O; Cha = N[C@@H](CC1CCCCC1)C(=O)O; αMeL = CC(C)C[C@](C)(N)C(=O)O; αMeOrn = C[C@](N)(CCCN)C(=O)O; β3hP = O=C(O)C[C@@H]1CCCN1; αMeS = C[C@](N)(CO)C(=O)O; Nle = CCCC[C@H](N)C(=O)O; Orn = NCCC[C@H](N)C(=O)O; Dab = NCC[C@H](N)C(=O)O; Pip′ = not defined here; Dap = NC[C@H](N)C(=O)O; AEEA = NCCOCCOCC(=O)O; Aib = CC(C)(N)C(=O)O; NPrGly = CCCNCC(=O)O; BLeu = β-leucine; Sar = CNCC(=O)O

T1: rat APJ receptor (rat, UniProt Q9JHG3 1-377)
T1 sequence (looked up): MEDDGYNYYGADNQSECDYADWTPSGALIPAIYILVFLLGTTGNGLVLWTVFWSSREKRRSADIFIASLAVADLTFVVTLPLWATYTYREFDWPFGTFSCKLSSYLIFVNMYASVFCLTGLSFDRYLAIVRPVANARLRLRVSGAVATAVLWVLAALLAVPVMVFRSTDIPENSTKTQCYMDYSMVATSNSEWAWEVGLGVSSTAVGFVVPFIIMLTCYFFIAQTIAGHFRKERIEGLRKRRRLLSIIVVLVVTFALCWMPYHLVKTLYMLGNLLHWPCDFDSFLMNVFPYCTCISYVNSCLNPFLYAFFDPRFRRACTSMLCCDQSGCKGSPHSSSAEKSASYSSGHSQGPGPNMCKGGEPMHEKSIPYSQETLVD

T2: human APJ receptor (human, UniProt P35414 1-380)
T2 sequence (looked up): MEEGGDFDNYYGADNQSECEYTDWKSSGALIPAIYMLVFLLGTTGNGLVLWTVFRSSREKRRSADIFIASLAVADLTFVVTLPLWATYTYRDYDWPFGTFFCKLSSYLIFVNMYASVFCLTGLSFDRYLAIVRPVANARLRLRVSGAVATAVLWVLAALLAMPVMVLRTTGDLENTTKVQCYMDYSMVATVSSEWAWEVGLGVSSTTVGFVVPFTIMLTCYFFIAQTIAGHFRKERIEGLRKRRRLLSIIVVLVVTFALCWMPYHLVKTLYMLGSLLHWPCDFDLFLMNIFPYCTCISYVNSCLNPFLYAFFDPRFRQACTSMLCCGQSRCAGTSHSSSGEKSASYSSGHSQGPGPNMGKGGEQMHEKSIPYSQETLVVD

B1: SEQ ID NO: 632 (peptide)
peptide: Palmitoyl-[γGlu][AEEA][AEEA][dQ]RP[NMeR][αMeL]SH[NPipG]G[Oic][Nle][β3hP][Phe(4-Cl)]-OH
SMILES: CCCCCCCCCCCCCCCC(=O)N[C@@H](CCC(=O)NCCOCCOCC(=O)NCCOCCOCC(=O)N[C@H](CCC(N)=O)C(=O)N[C@@H](CCCNC(=N)N)C(=O)N1CCC[C@H]1C(=O)N(C)[C@@H](CCCNC(=N)N)C(=O)N[C@@](C)(CC(C)C)C(=O)N[C@@H](CO)C(=O)N[C@@H](Cc1c[nH]cn1)C(=O)N(CC(=O)NCC(=O)N1[C@H](C(=O)N[C@@H](CCCC)C(=O)N2CCC[C@H]2CC(=O)N[C@@H](Cc2ccc(Cl)cc2)C(=O)O)C[C@@H]2CCCC[C@@H]21)C1CCNCC1)C(=O)O
B2: SEQ ID NO: 634 (peptide)
peptide: Palmitoyl-[γGlu][AEEA][AEEA][dQ]RP[NMeR][αMeL]SH[Orn]G[Oic][Nle][β3hP][Phe(4-Cl)]-OH
SMILES: CCCCCCCCCCCCCCCC(=O)N[C@@H](CCC(=O)NCCOCCOCC(=O)NCCOCCOCC(=O)N[C@H](CCC(N)=O)C(=O)N[C@@H](CCCNC(=N)N)C(=O)N1CCC[C@H]1C(=O)N(C)[C@@H](CCCNC(=N)N)C(=O)N[C@@](C)(CC(C)C)C(=O)N[C@@H](CO)C(=O)N[C@@H](Cc1c[nH]cn1)C(=O)N[C@@H](CCCN)C(=O)NCC(=O)N1[C@H](C(=O)N[C@@H](CCCC)C(=O)N2CCC[C@H]2CC(=O)N[C@@H](Cc2ccc(Cl)cc2)C(=O)O)C[C@@H]2CCCC[C@@H]21)C(=O)O
B3: SEQ ID NO: 629 (peptide)
peptide: Palmitoyl-[γGlu][AEEA][AEEA][dQ]RP[NMeR][αMeL]S[Bip]KG[Oic][Nle][β3hP][Phe(4-Cl)]-OH
SMILES: CCCCCCCCCCCCCCCC(=O)N[C@@H](CCC(=O)NCCOCCOCC(=O)NCCOCCOCC(=O)N[C@H](CCC(N)=O)C(=O)N[C@@H](CCCNC(=N)N)C(=O)N1CCC[C@H]1C(=O)N(C)[C@@H](CCCNC(=N)N)C(=O)N[C@@](C)(CC(C)C)C(=O)N[C@@H](CO)C(=O)N[C@@H](Cc1ccc(-c2ccccc2)cc1)C(=O)N[C@@H](CCCCN)C(=O)NCC(=O)N1[C@H](C(=O)N[C@@H](CCCC)C(=O)N2CCC[C@H]2CC(=O)N[C@@H](Cc2ccc(Cl)cc2)C(=O)O)C[C@@H]2CCCC[C@@H]21)C(=O)O
B4: SEQ ID NO: 627 (peptide)
peptide: Palmitoyl-[γGlu][AEEA][AEEA][dQ]RP[NMeR][αMeL][αMeS]HKG[Oic][Nle][β3hP][Phe(4-Cl)]-OH
SMILES: CCCCCCCCCCCCCCCC(=O)N[C@@H](CCC(=O)NCCOCCOCC(=O)NCCOCCOCC(=O)N[C@H](CCC(N)=O)C(=O)N[C@@H](CCCNC(=N)N)C(=O)N1CCC[C@H]1C(=O)N(C)[C@@H](CCCNC(=N)N)C(=O)N[C@@](C)(CC(C)C)C(=O)N[C@@](C)(CO)C(=O)N[C@@H](Cc1c[nH]cn1)C(=O)N[C@@H](CCCCN)C(=O)NCC(=O)N1[C@H](C(=O)N[C@@H](CCCC)C(=O)N2CCC[C@H]2CC(=O)N[C@@H](Cc2ccc(Cl)cc2)C(=O)O)C[C@@H]2CCCC[C@@H]21)C(=O)O
B5: SEQ ID NO: 635 (peptide)
peptide: Palmitoyl-[γGlu][AEEA][AEEA][dQ]RP[NMeR][αMeL]SH[αMeOrn]G[Oic][Nle][β3hP][Phe(4-Cl)]-OH
SMILES: CCCCCCCCCCCCCCCC(=O)N[C@@H](CCC(=O)NCCOCCOCC(=O)NCCOCCOCC(=O)N[C@H](CCC(N)=O)C(=O)N[C@@H](CCCNC(=N)N)C(=O)N1CCC[C@H]1C(=O)N(C)[C@@H](CCCNC(=N)N)C(=O)N[C@@](C)(CC(C)C)C(=O)N[C@@H](CO)C(=O)N[C@@H](Cc1c[nH]cn1)C(=O)N[C@@](C)(CCCN)C(=O)NCC(=O)N1[C@H](C(=O)N[C@@H](CCCC)C(=O)N2CCC[C@H]2CC(=O)N[C@@H](Cc2ccc(Cl)cc2)C(=O)O)C[C@@H]2CCCC[C@@H]21)C(=O)O
B6: SEQ ID NO: 616 (peptide)
peptide: Palmitoyl-[γGlu][AEEA][AEEA][dQ]RP[NMeR][Cha]S[Dap]KG[Oic][Nle][β3hP][d(β3hF)]-OH
SMILES: CCCCCCCCCCCCCCCC(=O)N[C@@H](CCC(=O)NCCOCCOCC(=O)NCCOCCOCC(=O)N[C@H](CCC(N)=O)C(=O)N[C@@H](CCCNC(=N)N)C(=O)N1CCC[C@H]1C(=O)N(C)[C@@H](CCCNC(=N)N)C(=O)N[C@@H](CC1CCCCC1)C(=O)N[C@@H](CO)C(=O)N[C@@H](CN)C(=O)N[C@@H](CCCCN)C(=O)NCC(=O)N1[C@H](C(=O)N[C@@H](CCCC)C(=O)N2CCC[C@H]2CC(=O)N[C@@H](CC(=O)O)Cc2ccccc2)C[C@@H]2CCCC[C@@H]21)C(=O)O
B7: SEQ ID NO: 636 (peptide)
peptide: Palmitoyl-[γGlu][AEEA][AEEA][dQ]RP[NMeR][αMeL]SH[3Pal]G[Oic][Nle][β3hP][Phe(4-Cl)]-OH
SMILES: CCCCCCCCCCCCCCCC(=O)N[C@@H](CCC(=O)NCCOCCOCC(=O)NCCOCCOCC(=O)N[C@H](CCC(N)=O)C(=O)N[C@@H](CCCNC(=N)N)C(=O)N1CCC[C@H]1C(=O)N(C)[C@@H](CCCNC(=N)N)C(=O)N[C@@](C)(CC(C)C)C(=O)N[C@@H](CO)C(=O)N[C@@H](Cc1c[nH]cn1)C(=O)N[C@@H](Cc1cccnc1)C(=O)NCC(=O)N1[C@H](C(=O)N[C@@H](CCCC)C(=O)N2CCC[C@H]2CC(=O)N[C@@H](Cc2ccc(Cl)cc2)C(=O)O)C[C@@H]2CCCC[C@@H]21)C(=O)O

Tests used:
rat APJ receptor = molecular target: T1, rat APJ receptor; assay: cell-based or functional assay
human APJ receptor = molecular target: T2, human APJ receptor; assay: cell-based or functional assay

Row | Binder | EC50 Rat APJ Receptor (rat APJ receptor) [nM] | EC50 Human APJ Receptor (human APJ receptor) [nM]
1 | Palmitoyl-[AC4Abu][AEEA][AEEA][dQ]RP[NMeR][αMeL]SH[Igl]G[Oic][Nle][β3hP][Phe(4-Cl)]-OH [SEQ ID NO: 640] | 25.2 | 4.03
2 | Palmitoyl-[AC4Abu][AEEA][AEEA][dQ]RP[NMeR][Cha]S[NPrGly]KG[Pip′][Nle][Aib][Phe(4-Cl)]-OH [SEQ ID NO: 644] | 4.2 | 1.4
3 | Palmitoyl-[γGlu][AEEA][AEEA][dQ]RP[NMeR][αMeL]SHKG[Oic][Nle][β3hP][Phe(4-Cl)]-OH (not fully specified (residue 10)) [SEQ ID NO: 631] | 0.699 | 0.338
4 | Palmitoyl-[γGlu][AEEA][AEEA][dQ]RP[NMeR][αMeL]SH[Dab]G[Oic][Nle][β3hP][Phe(4-Cl)]-OH [SEQ ID NO: 638] | 9.32 | 3.2
5 | Palmitoyl-[γGlu][AEEA][AEEA][dQ]RP[NMeR][αMeL][BLeu]HKG[Oic][Nle][β3hP][Phe(4-Cl)]-OH [SEQ ID NO: 628] | 0.773 | 0.309
6 | Palmitoyl-[γGlu][AEEA][AEEA][dQ]RP[NMeR][αMeL]SH[Phe(4-F)]G[Oic][Nle][β3hP][Phe(4-Cl)]-OH [SEQ ID NO: 637] | 14.2 | 4.05
7 | Palmitoyl-[AC4Abu][AEEA][AEEA][dQ]RP[NMeR][Cha][NPrGly]HKG[Pip′][Nle][Aib][Phe(4-Cl)]-OH [SEQ ID NO: 643] | 3.79 | 0.463
8 | B1 | 22 | 3.02
9 | Palmitoyl-[AC4Abu][AEEA][AEEA][dQ]RP[NMeR][αMeL]SHK[Sar][Oic][Nle][β3hP][Phe(4-Cl)]-OH [SEQ ID NO: 641] | 3.66 | 0.58
10 | B2 | 2.21 | 0.164
11 | B3 | 5.3 | 2.45
12 | B4 | 0.641 | 0.244
13 | Palmitoyl-[γGlu][AEEA][AEEA][dQ]RP[NMeR][Cha][BLeu]HKG[Oic][Nle][β3hP][d(β3hF)]-OH [SEQ ID NO: 615] | 23.2 | 9.42
14 | B5 | 6.64 | 1.62
15 | B6 | 17.2 | 2.75
16 | Palmitoyl-[γGlu][AEEA][AEEA][dQ]RP[NMeR][αMeL]SH[Dap]G[Oic][Nle][β3hP][Phe(4-Cl)]-OH [SEQ ID NO: 639] | 15.4 | 3.28
17 | B7 | 3.65 | 1.59
